How the values were obtained:
[1] = target: T1, GFP-USP9X catalytically inactive mutant (C1566S) (mouse) (mouse, UniProt P70398 1-2559, C1566S); experiment: co-IP; anti-Flag immunoprecipitation from lysates of HEK293 cells expressing Flag-NPHP5 or its fragments (alone or with GFP-tagged partner), Western blot; settings: partners not purified
T1 construct: mouse USP9X C1566S cDNA (from S. Wood) sub-cloned into pEGFP-C1; pEGFP-C1 is expected to place EGFP at the N-terminus (surmise); also called GFP-USP9X mutant (C1566S); pEGFP-C1-USP9X(C1566S); source: HEK293, transfected, in lysate; also purified from HEK293 (anti-GFP immunoprecipitation, 500 mM NaCl washes, kept on beads)
T1 sequence (P70398 whole entry C1566S, the tested form may be a part): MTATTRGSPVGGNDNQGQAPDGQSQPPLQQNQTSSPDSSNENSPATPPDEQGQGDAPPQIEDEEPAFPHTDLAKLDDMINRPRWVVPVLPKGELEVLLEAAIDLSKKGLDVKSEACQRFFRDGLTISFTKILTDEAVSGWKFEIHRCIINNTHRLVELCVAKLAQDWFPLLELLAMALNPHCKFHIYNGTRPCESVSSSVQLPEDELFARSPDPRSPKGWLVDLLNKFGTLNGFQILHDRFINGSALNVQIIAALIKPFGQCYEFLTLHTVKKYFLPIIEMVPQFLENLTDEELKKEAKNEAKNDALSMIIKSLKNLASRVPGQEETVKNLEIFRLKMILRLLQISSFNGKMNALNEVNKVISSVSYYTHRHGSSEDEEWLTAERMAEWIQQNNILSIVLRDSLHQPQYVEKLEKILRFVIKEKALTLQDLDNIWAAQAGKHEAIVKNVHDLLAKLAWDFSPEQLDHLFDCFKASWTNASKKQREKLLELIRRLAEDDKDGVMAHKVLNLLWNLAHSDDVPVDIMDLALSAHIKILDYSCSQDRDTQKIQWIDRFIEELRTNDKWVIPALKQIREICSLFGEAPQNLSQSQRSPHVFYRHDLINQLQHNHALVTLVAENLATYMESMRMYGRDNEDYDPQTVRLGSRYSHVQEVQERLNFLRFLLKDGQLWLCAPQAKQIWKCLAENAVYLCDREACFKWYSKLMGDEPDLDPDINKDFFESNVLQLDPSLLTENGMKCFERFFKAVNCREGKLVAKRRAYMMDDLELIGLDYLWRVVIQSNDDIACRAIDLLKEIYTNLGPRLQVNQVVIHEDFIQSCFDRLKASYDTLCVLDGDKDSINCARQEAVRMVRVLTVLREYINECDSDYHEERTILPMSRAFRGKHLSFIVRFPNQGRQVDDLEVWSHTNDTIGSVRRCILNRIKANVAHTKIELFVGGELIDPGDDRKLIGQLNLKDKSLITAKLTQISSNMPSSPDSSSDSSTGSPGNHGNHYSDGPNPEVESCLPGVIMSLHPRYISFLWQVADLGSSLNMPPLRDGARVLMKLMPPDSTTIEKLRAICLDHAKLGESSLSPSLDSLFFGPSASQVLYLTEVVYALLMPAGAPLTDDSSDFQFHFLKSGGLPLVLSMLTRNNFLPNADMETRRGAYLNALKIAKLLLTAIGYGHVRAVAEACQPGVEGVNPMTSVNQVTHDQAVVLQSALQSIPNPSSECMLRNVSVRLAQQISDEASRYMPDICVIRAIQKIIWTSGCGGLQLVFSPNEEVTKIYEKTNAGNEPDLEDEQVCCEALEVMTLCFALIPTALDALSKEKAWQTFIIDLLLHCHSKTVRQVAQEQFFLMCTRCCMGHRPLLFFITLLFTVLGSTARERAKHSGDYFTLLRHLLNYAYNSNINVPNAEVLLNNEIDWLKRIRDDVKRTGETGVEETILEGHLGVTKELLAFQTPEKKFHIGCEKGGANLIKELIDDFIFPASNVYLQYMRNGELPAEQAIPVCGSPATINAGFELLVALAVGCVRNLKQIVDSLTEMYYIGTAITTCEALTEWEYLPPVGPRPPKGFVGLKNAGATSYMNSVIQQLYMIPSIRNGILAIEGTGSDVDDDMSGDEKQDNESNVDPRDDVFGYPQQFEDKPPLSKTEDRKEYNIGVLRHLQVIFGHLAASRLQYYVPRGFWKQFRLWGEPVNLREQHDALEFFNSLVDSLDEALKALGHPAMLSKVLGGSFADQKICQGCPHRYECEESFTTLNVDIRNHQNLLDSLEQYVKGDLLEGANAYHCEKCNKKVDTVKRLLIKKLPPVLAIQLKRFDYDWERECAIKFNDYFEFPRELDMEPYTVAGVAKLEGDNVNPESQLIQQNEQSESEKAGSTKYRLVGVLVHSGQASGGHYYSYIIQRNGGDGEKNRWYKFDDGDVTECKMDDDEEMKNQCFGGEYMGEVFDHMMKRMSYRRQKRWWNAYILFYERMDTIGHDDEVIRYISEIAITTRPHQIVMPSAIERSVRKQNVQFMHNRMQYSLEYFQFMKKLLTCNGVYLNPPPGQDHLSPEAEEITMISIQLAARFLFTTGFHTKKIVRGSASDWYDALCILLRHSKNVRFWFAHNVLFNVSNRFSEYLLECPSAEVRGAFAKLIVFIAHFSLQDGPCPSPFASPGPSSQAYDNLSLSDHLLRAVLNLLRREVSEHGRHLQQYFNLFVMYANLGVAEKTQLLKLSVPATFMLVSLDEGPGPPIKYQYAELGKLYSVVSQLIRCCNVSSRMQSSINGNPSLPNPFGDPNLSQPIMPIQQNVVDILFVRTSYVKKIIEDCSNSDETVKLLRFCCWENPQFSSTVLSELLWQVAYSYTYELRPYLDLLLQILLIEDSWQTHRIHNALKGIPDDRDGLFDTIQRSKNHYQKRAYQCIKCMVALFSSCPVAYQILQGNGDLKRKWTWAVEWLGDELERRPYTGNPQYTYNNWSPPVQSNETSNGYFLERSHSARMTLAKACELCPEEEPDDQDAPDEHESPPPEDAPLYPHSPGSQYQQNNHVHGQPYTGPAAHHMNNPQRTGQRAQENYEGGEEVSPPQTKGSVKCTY

[2] = target: T2, GFP-USP9X wild type (mouse) (mouse, UniProt P70398 1-2559); experiment: as above; settings: partners not purified
T2 construct: mouse USP9X cDNA (from S. Wood) sub-cloned into pEGFP-C1; pEGFP-C1 is expected to place EGFP at the N-terminus (surmise); also called pEGFP-C1-USP9X; purified USP9X; source: HEK293, transfected, in lysate; also purified from HEK293 (anti-GFP immunoprecipitation, 500 mM NaCl washes, kept on beads)
T2 sequence (P70398 whole entry): as the sequence (P70398 whole entry C1566S, the tested form may be a part) above, with S1566C counted along it

[3] = target: T3, MARCH7/axotrophin, endogenous (human (endogenous in HEK293), UniProt Q9H992 1-704); experiment: pull-down; 1 μg purified Flag-NPHP5 mixed with 1 μg purified USP9X, BBS11 or MARCH7 bound to beads, 4°C, 2 h, extensive washing, Western blot; settings: both partners purified
T3 construct: E3 ubiquitin ligase MARCH7/axotrophin, endogenous in HEK293; also called endogenous MARCH7; source: endogenous, HEK293 lysate; also immunoprecipitated from HEK293 with anti-MARCH7 antibody, 500 mM NaCl washes, kept on beads
T3 sequence (looked up): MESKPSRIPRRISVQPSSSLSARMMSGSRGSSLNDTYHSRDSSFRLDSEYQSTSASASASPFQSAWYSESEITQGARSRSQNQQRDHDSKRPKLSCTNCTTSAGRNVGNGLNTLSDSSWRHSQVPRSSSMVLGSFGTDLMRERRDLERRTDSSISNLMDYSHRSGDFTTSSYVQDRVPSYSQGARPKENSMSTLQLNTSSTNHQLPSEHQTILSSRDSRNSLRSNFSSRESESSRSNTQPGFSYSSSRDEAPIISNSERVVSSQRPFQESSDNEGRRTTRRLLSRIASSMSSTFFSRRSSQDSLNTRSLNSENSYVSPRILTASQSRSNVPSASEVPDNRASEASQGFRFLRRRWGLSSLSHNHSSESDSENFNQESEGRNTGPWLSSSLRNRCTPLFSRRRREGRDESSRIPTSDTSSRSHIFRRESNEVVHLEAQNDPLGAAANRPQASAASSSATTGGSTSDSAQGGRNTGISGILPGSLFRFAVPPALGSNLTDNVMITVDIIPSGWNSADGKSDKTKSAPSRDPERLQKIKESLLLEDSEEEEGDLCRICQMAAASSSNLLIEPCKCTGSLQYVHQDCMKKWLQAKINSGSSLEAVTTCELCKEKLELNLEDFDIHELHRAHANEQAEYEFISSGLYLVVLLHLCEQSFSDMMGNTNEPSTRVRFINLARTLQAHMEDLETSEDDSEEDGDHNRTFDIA

BBS11/TRIM32, endogenous = target: T4, BBS11/TRIM32, endogenous (human (endogenous in HEK293), UniProt Q13049 1-653); experiment: as above; settings: both partners purified
T4 construct: E3 ubiquitin ligase BBS11/TRIM32, endogenous in HEK293; also called endogenous BBS11; source: endogenous, HEK293 lysate; also immunoprecipitated from HEK293 with anti-BBS11 antibody, 500 mM NaCl washes, kept on beads
T4 sequence (looked up): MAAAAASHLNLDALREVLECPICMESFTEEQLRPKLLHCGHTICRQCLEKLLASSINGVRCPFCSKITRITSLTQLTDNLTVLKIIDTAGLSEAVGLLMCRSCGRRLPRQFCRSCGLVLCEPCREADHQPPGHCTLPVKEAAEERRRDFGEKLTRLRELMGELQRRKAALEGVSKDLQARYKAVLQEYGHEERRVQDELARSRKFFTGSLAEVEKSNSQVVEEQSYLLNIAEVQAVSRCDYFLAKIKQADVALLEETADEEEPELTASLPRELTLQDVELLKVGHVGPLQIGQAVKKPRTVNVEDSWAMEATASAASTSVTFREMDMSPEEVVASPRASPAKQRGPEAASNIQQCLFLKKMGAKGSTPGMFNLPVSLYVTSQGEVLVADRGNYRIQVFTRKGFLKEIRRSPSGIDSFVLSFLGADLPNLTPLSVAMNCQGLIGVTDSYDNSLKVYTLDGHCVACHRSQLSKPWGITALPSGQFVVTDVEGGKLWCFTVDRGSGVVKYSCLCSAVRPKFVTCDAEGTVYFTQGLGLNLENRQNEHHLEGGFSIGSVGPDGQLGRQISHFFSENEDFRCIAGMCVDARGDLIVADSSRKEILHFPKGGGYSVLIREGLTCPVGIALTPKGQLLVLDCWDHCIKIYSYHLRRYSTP

- binding result [1]: binds
- binding result [2]: binds
- binding result [3]: binds
- binding result (BBS11/TRIM32, endogenous): binds
B1: Flag-NPHP5 (nephrocystin-5), full length 1-598 (natural protein, UniProt Q15051 1-598, looked up)
chain: MKPTGTDPRILSIAAEVAKSPEQNVPVILLKLKEIINITPLGSSELKKIKQDIYCYDLIQYCLLVLSQDYSRIQGGWTTISQLTQILSHCCVGLEPGEDAEEFYNELLPSAAENFLVLGRQLQTCFINAAKAEEKDELLHFFQIVTDSLFWLLGGHVELIQNVLQSDHFLHLLQADNVQIGSAVMMMLQNILQINSGDLLRIGRKALYSILDEVIFKLFSTPSPVIRSTATKLLLLMAESHQEILILLRQSTCYKGLRRLLSKQETGTEFSQELRQLVGLLSPMVYQEVEEQKLHQAACLIQAYWKGFQTRKRLKKLPSAVIALQRSFRSKRSKMLLEINRQKEEEDLKLQLQLQRQRAMRLSRELQLSMLEIVHPGQVEKHYREMEEKSALIIQKHWRGYRERKNFHQQRQSLIEYKAAVTLQRAALKFLAKCRKKKKLFAPWRGLQELTDARRVELKKRVDDYVRRHLGSPMSDVVSRELHAQAQERLQHYFMGRALEERAQQHREALIAQISTNVEQLMKAPSLKEAEGKEPELFLSRSRPVAAKAKQAHLTTLKHIQAPWWKKLGEESGDEIDVPKDELSIELENLFIGGTKPP
notes: also called IQCB1; source: HEK293, transfected, in lysate; also purified from HEK293 (anti-Flag immunoprecipitation, 500 mM NaCl washes, eluted with Flag peptide)

Reference: article PMC5446187, “USP9X counteracts differential ubiquitination of NPHP5 by MARCH7 and BBS11 to regulate ciliogenesis” (PLoS Genetics, 2017)
